The source of these data is article PMC4503747.

Values joined by “and” are separate entries in the source; they are usually repeats but may differ in a detail not shown here. Identical values can stand only once.

The target of this assay is GST-Yih1[2–258], overexpressed in yeast from a galactose-inducible promoter (S. cerevisiae) (UniProt P25637). The experiment in a line: pull-down; in vivo GST pull-down: GST fusions overexpressed in yeast from a galactose-inducible promoter (yih1Δ strains; gcn1Δ strain H2556 for the fragments; also cells arrested in G1 with α-factor and released), WCE (1-2 mg) on glutathione beads, immunoblot for endogenous proteins.
Chain of GST-Yih1[2–258], overexpressed in yeast from a galactose-inducible promoter (S. cerevisiae) (P25637 2-258): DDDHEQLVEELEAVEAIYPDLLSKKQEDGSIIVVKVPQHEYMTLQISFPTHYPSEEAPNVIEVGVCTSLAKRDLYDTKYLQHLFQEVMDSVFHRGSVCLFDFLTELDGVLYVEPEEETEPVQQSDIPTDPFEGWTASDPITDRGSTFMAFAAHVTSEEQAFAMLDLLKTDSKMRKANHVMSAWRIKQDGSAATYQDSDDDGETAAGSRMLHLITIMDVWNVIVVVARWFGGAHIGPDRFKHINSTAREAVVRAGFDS

Regarding “Cdc28 (endogenous, yeast whole cell extract) (from UniProt P00546 1-298) (natural protein)”, the fold increase of precipitated Cdc28 relative to GST-Yih1 in S-G2/M (30, 60 and 90 minutes after release) against cells arrested in G1 with α-factor is 2 fold and 3 fold.
